Measurements from PMC3384344 (Nucleic Acids Research, 2012).
Where two headings read alike, the source gives them in different places.

B1: UmuD′, cleaved form of UmuD (homodimer UmuD′2) (natural protein)
chain: GFPSPAADYVEQRIDLNQLLIQHPSATYFVKASGDSMIDGGISDGDLLIVDSAITASHGDIVIAAVDGEFTVKKLQLRPTVQLIPMNSAYSPITISSEDTLDVFGVVIHVVKAMR
B2: UmuD, wild-type full-length (homodimer UmuD2) (natural protein)
chain: MLFIKPADLREIVTFPLFSDLVQCGFPSPAADYVEQRIDLNQLLIQHPSATYFVKASGDSMIDGGISDGDLLIVDSAITASHGDIVIAAVDGEFTVKKLQLRPTVQLIPMNSAYSPITISSEDTLDVFGVVIHVVKAMR
B3: UmuD3A (UmuD containing the triple mutation T14A, L17A and F18A) (natural protein)
chain: MLFIKPADLREIVAFPAASDLVQCGFPSPAADYVEQRIDLNQLLIQHPSATYFVKASGDSMIDGGISDGDLLIVDSAITASHGDIVIAAVDGEFTVKKLQLRPTVQLIPMNSAYSPITISSEDTLDVFGVVIHVVKAMR
B4: UmuD-S60A, non-cleavable full-length UmuD variant (natural protein)
chain: MLFIKPADLREIVTFPLFSDLVQCGFPSPAADYVEQRIDLNQLLIQHPSATYFVKASGDAMIDGGISDGDLLIVDSAITASHGDIVIAAVDGEFTVKKLQLRPTVQLIPMNSAYSPITISSEDTLDVFGVVIHVVKAMR

Columns and labels:
[1] = target: DNA polymerase III α subunit, wild-type full-length (E. coli) (UniProt P10443); experiment: other fluorescence titration
Chain of DNA polymerase III α subunit, wild-type full-length (E. coli) (P10443 whole entry): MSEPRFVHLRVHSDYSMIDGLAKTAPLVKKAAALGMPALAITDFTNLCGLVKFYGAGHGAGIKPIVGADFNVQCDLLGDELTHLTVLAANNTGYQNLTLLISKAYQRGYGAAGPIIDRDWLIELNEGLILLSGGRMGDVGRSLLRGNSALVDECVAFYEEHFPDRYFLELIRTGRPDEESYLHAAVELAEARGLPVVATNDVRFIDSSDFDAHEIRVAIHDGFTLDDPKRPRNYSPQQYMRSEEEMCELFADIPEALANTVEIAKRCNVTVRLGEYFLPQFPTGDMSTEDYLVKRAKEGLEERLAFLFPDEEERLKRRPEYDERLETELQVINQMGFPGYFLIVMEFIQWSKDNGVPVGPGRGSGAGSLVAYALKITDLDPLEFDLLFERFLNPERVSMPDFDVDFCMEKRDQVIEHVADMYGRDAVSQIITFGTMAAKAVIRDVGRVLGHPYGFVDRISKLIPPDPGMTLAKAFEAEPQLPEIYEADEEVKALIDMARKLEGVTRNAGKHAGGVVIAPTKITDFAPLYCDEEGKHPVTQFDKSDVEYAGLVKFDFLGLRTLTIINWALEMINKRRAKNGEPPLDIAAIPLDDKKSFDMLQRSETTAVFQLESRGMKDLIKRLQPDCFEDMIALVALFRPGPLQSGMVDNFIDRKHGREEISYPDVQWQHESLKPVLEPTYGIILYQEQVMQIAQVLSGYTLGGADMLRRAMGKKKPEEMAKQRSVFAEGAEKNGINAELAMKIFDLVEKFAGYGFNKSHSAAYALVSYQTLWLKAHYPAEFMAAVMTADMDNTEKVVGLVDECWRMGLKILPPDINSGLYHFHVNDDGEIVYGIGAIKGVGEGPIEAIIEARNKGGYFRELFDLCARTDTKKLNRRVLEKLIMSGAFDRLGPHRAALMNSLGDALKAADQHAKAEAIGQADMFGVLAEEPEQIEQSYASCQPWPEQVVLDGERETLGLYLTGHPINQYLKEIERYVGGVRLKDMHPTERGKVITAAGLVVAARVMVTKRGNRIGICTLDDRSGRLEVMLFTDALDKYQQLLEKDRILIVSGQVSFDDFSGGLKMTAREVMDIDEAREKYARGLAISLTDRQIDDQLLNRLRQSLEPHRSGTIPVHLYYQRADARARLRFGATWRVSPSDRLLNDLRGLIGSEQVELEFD

[2] = target: T1, DNA polymerase III α subunit, wild-type full-length (E. coli, UniProt P10443 1-1160); experiment: other fluorescence titration
T1 sequence (P10443 whole entry, the tested form may be a part): as the sequence (P10443 whole entry) above

[3] = target: T2, DNA polymerase III α subunit truncation α1–280 (E. coli, UniProt P10443 1-280); experiment: other fluorescence titration
T2 sequence (P10443 1-280): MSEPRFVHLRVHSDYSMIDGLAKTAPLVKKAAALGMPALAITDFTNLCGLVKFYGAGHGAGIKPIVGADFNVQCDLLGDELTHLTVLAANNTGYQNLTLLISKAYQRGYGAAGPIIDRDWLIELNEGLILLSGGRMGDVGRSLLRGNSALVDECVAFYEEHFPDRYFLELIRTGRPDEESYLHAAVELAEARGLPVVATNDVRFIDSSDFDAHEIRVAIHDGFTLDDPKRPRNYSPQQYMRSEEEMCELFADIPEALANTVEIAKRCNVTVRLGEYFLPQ

[4] = target: DNA polymerase III α subunit truncation α917–1160 (E. coli, UniProt P10443 917-1160); experiment: other fluorescence titration
Chain of DNA polymerase III α subunit truncation α917–1160 (P10443 917-1160): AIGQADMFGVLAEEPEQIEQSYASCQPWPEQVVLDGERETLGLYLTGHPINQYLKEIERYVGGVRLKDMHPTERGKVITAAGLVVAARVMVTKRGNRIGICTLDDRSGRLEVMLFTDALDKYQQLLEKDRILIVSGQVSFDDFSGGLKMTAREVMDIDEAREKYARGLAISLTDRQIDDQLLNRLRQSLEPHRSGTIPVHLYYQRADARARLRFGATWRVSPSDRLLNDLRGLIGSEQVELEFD

[5] = target: T1, DNA polymerase III α subunit, wild-type …; experiment: other fluorescence titration; remark: listed apart in the source
[6] = target: T2, DNA polymerase III α subunit truncation …; experiment: cell-based or functional assay
[7] = target: DNA polymerase III α subunit truncation α1–956 (E. coli, UniProt P10443 1-956); experiment: other fluorescence titration
Chain of DNA polymerase III α subunit truncation α1–956 (P10443 1-956): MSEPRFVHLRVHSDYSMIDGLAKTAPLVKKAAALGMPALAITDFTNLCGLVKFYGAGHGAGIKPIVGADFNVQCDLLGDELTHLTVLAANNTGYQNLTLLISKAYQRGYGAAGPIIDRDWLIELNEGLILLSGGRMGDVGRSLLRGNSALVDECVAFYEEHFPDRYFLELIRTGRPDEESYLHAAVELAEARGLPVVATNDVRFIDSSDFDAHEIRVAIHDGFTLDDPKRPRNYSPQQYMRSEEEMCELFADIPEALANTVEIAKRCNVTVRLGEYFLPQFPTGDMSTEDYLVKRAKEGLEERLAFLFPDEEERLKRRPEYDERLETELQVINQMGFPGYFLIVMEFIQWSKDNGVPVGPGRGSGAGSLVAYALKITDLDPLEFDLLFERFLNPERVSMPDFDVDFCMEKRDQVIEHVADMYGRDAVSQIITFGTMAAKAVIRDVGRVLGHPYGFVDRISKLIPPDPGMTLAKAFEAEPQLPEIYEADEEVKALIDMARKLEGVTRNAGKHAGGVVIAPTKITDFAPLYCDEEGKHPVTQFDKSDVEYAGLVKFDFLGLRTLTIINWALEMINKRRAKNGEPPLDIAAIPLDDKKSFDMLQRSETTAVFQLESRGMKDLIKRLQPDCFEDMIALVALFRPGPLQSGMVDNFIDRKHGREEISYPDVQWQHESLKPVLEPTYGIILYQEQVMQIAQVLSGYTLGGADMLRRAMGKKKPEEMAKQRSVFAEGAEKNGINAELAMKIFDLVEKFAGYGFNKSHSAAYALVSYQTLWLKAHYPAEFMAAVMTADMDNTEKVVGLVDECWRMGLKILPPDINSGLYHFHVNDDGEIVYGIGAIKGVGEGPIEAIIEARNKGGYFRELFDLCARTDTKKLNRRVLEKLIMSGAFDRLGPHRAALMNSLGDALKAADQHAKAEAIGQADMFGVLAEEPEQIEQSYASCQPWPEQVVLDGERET

[8] = target: DNA polymerase III α subunit truncation α1–975 (E. coli, UniProt P10443 1-975); experiment: other fluorescence titration
Chain of DNA polymerase III α subunit truncation α1–975 (P10443 1-975): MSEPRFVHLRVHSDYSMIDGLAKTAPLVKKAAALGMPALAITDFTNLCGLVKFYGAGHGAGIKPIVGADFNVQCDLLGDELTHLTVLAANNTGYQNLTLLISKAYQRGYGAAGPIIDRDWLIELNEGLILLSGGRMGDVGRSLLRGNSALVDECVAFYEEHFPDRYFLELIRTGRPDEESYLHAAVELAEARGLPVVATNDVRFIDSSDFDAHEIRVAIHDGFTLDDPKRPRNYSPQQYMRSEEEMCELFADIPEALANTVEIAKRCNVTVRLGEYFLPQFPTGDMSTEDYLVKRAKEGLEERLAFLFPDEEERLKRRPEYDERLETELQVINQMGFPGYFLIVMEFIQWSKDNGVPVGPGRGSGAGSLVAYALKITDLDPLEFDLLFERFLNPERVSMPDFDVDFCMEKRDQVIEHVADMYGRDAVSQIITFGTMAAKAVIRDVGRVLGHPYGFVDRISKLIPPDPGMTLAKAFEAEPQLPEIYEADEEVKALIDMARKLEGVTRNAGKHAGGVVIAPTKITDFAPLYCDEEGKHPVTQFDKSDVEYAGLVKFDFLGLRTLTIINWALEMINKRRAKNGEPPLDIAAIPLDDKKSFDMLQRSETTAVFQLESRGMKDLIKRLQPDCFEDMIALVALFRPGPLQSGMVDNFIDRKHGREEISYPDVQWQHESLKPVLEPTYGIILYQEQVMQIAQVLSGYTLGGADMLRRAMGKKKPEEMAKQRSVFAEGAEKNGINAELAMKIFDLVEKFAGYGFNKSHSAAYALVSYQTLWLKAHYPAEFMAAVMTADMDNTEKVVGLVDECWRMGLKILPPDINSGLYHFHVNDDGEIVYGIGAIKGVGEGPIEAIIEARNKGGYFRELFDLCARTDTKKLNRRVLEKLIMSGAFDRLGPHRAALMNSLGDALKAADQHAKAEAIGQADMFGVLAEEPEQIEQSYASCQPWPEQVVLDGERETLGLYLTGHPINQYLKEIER

cross-linking = target: the molecule itself; experiment: cross-linking

| Molecule | Kd [1] [µM] | Kd [2] [µM] | Kd [3] [µM] | Kd [4] [µM] | Kd [5] [µM] | RecA/ssDNA-facilitated UmuD cleavage at 30°C with 0–40 µM α1–280 [6] | Kd [7] [µM] | Kd [8] [µM] | binding result (cross-linking) |
| --- | --- | --- | --- | --- | --- | --- | --- | --- | --- |
| 1:1 mixture of UmuD-S60A and UmuD′-S60A (from UniProt P0AG11) (complex) | 4.6 |  |  |  |  |  |  |  |  |
| B1 |  | 10.9 ± 1.6 | 8.6 ± 1 | 3.8 ± 0.9 |  |  |  |  |  |
| B2 |  | 1.1 ± 0.6 | 7.3 ± 1.4 | 13.9 ± 5.1 | 21.7 ± 11.7 | ~4 fold more α1–280 than wild-type α | 14.7 ± 1.9 | 3.1 ± 1 |  |
| B3 |  | 8.7 ± 1.5 | 9.3 ± 3.2 | 3.4 ± 1 |  |  |  |  |  |
| B4 |  | 10.6 ± 2.9 | 10.3 ± 4.3 | 0.7 ± 0.3 |  |  |  |  | binds |
